Entries after “also recorded” stand apart in the source; their conditions may differ.
B1: FBLN1: fibulin-1 (protein, UniProt P23142 30-703, looked up)
Fibulin-1: DVLLEACCADGHRMATHQKDCSLPYATESKECRMVQEQCCHSQLEELHCATGISLANEQDRCATPHGDNASLEATFVKRCCHCCLLGRAAQAQGQSCEYSLMVGYQCGQVFQACCVKSQETGDLDVGGLQETDKIIEVEEEQEDPYLNDRCRGGGPCKQQCRDTGDEVVCSCFVGYQLLSDGVSCEDVNECITGSHSCRLGESCINTVGSFRCQRDSSCGTGYELTEDNSCKDIDECESGIHNCLPDFICQNTLGSFRCRPKLQCKSGFIQDALGNCIDINECLSISAPCPIGHTCINTEGSYTCQKNVPNCGRGYHLNEEGTRCVDVDECAPPAEPCGKGHRCVNSPGSFRCECKTGYYFDGISRMCVDVNECQRYPGRLCGHKCENTLGSYLCSCSVGFRLSVDGRSCEDINECSSSPCSQECANVYGSYQCYCRRGYQLSDVDGVTCEDIDECALPTGGHICSYRCINIPGSFQCSCPSSGYRLAPNGRNCQDIDECVTGIHNCSINETCFNIQGGFRCLAFECPENYRRSAATLQQEKTDTVRCIKSCRPNDVTCVFDPVHTISHTVISLPTFREFTRPEEIIFLRAITPPHPASQANIIFDITEGNLRDSFDIIKRYMDGMTVGVVRQVRPIVGPFHAVLKLEMNYVVGGVVSHRNVVNVHIFVSEYWF
B2: SERPINH1: serpin H1 (protein, UniProt P50454 19-418, looked up)
Serpin H1: AEVKKPAAAAAPGTAEKLSPKAATLAERSAGLAFSLYQAMAKDQAVENILVSPVVVASSLGLVSLGGKATTASQAKAVLSAEQLRDEEVHAGLGELLRSLSNSTARNVTWKLGSRLYGPSSVSFADDFVRSSKQHYNCEHSKINFRDKRSALQSINEWAAQTTDGKLPEVTKDVERTDGALLVNAMFFKPHWDEKFHHKMVDNRGFMVTRSYTVGVMMMHRTGLYNYYDDEKEKLQIVEMPLAHKLSSLIILMPHHVEPLERLEKLLTKEQLKIWMGKMQKKAVAISLPKGVVEVTHDLQKHLAGLGLTEAIDKNKADLSRMSGKKDLYLASVFHATAFELDTDGNPFDQDIYGREELRSPKLFYADHPFIFLVRDTQSGSLLFIGRLVRPKGDKMRDEL
B3: LG3BP: lectin galactoside-binding soluble 3-binding protein (protein)
chain: VNDGDMRLADGGATNQGRVEIFYRGQWGTVCDNLWDLTDASVVCRALGFENATQALGRAAFGQGSGPIMLDEVQCTGTEASLADCKSLGWLKSNCRHERDAGVVCTNETRSTHTLDLSRELSEALGQIFDSQRGCDLSISVNVQGEDALGFCGHTVILTANLEAQALWKEPGSNVTMSVDAECVPMVRDLLRYFYSRRIDITLSSVKCFHKLASAYGARQLQGYCASLFAILLPQDPSFQMPLDLYAYAVATGDALLEKLCLQFLAWNFEALTQAEAWPSVPTDLLQLLLPRSDLAVPSELALLKAVDTWSWGERASHEEVEGLVEKIRFPMMLPEELFELQFNLSLYWSHEALFQKKTLQALEFHTVPFQLLARYKGLNLTEDTYKPRIYTSPTWSAFVTDSSWSARKSQLVYQSRRGPLVKYSSDYFQAPSDYRYYPYQSFQTPQHPSFLFQDKRVSWSLVYLPTIQSCWNYGFSCSSDELPVLGLTKSGGSDRTIAYENKALMLCEGLFVADVTDFEGWKAAIPSALDTNSSKSTSSFPCPAGHFNGFRTVIRPFYLTNSSGVD
modifications: left off: myc, end not stated, kept | His, end not stated, state not stated
B4: PRDX4: Peroxiredoxin-4 (protein, UniProt Q13162 38-271, looked up)
Peroxiredoxin-4: WETEERPRTREEECHFYAGGQVYPGEASRVSVADHSLHLSKAKISKPAPYWEGTAVIDGEFKELKLTDYRGKYLVFFFYPLDFTFVCPTEIIAFGDRLEEFRSINTEVVACSVDSQFTHLAWINTPRRQGGLGPIRIPLLSDLTHQISKDYGVYLEDSGHTLRGLFIIDDKGILRQITLNDLPVGRSVDETLRLVQAFQYTDKHGEVCPAGWKPGSETIIPDPAGKLKYFDKLN
B5: RGS4: ATE1 model substrate RGS4 (2nd oxidized Cys) (protein)
chain: RCKGLAGLPASCLRSAKDMKHRLGFLLQKSDSCEHNSSHNKKDKVVICQRVSQEEVKKWAESLENLISHECGLAAFKAFLKSEYSEENIDFWISCEEYKKIKSPSKLSPKAKKIYNEFISVQATKEVNLDSCTREETSRNMLEPTITCFDEAQKKIFNLMEKDSYRRFLKSRFYLDLVNPSSCGAEKQKGAKSSADCASLVPQCA
modifications: oxidized Cys as 2nd residue; left off: myc, end not stated, kept | His, end not stated, state not stated

Key:
R-catcher [1] = experiment: R-catcher pulldown of putative arginylated ER proteins, HeLa; assay type: binding, human; conditions: 5 µM MG132 plus 100 nM TG, RA competition, Fig. 6a
Method: (§1) For small-scale R-catcher pull-down assays, 300 µg of purified R-catcher was conjugated with 120 µl of Strep-Tactin sepharose resin by incubating overnight at 4 °C. To test R-catcher’s ability to capture known arginylated proteins, such as R-BiP, R-PDI, R-nsP4 and R-RGS4, plasmids encoding Ub-X-(BiP, PDI and nsP4) or MX-RGS4 (X = Arg or Val) were transiently transfected into HEK293 cells. After 24 h, cells were treated with 10 µM MG132 and 100 nM thapsigargin for another 24 h. Cells were harvested and lysed in hypotonic buffer and 300 µg total protein was incubate with 25 µl R-catcher-sepharose resin in binding buffer (20 mM HEPES pH 7.9, 0.05% Tween 20, 10% glycerol, 0.2 M KCl, protease inhibitor and phosphatase inhibitor) for 3 h with gentle rotation at 4 °C. After three washes with binding buffer, bound proteins were dissociated with 2 × SDS sample buffer and boiling at 100 °C and subjected to immunoblotting using anti-myc or flag antibodies.
Plasmids encoding the proteins were transiently transfected to HeLa cells for 24 h and stimulated with 5 µM MG132 plus 100 nM TG for another 24 h. Cell lysates were incubated with R-catcher immobilized on tactin beads for 3 h. After wash, bound proteins were eluted with 2 × SDS sample buffer followed by boiling at 100 °C for 10 min and visualized by western blot analysis. b R-catcher pulldown assays to validate ATE1-dependent arginylation of […]1, PRDX4, FBLN1 and CLUS. Plasmids encoding […]1, PRDX4, FBLN1 and CLUS were transiently transfected into + / + and ATE1^−/− MEFs for 24 h and stimulated with 5 µM MG132 plus 100 nM TG for another 9 h. Cell lysates were subjected to R-catcher pulldown, and bound proteins were detected by western blot analysis. c R-catcher pull-down assays to evaluate if the arginylation of FBNL1, SERPINH1, CLUS and PRDX4 is induced in response to MG132 plus thapsigargin. d X-peptide pulldown assays to confirm no interaction of R-catcher with Nt-Ala19 of SERPINH1 peptides and Nt-Trp38 of PRDX4 peptides. X-peptides where X is A19 (SignalP predicted P1’ site), E20 (next possible P1’ site predicted by PrediSi) or R19 (Arginylated form of Glu) for SERPINH1 and W38 (SignalP predicted P1’ site), E39 (next possible P1’ site predicted by PrediSi) or R38 (Arginylated form) for PRDX4. Biotinylated X-peptides immobilized on streptavidin agarose beads were incubated with affinity-purified GST-ZZ ([…]). Bound GST-ZZ (N132D) was detected by immunoblotting. e Identification of arginylated sites employing mutational analysis. Predicted P1’ sites of SERPINH1, PRDX4, CLUS and FBLN1 were substituted to Gly, and the inhibitory effect of the mutation on binding with R-catcher was examined by performing R-catcher pulldown assays

R-catcher [2] = experiment: R-catcher pulldown in +/+ and ATE1-/- MEFs; assay type: binding; conditions: +/+ versus ATE1-/- MEFs, MG132 plus TG, 9 h, Fig. 6b
Method: as §1
(§2) Plasmids encoding the proteins were transiently transfected to HeLa cells for 24 h and stimulated with 5 µM MG132 plus 100 nM TG for another 24 h. Cell lysates were incubated with R-catcher immobilized on tactin beads for 3 h. After wash, bound proteins were eluted with 2 × SDS sample buffer followed by boiling at 100 °C for 10 min and visualized by western blot analysis. b R-catcher pulldown assays to validate ATE1-dependent arginylation of […]1, PRDX4, FBLN1 and CLUS. […] Cell lysates were subjected to R-catcher pulldown, and bound proteins were detected by western blot analysis. c R-catcher pull-down assays to evaluate if the arginylation of FBNL1, SERPINH1, CLUS and PRDX4 is induced in response to MG132 plus thapsigargin. d X-peptide pulldown assays to confirm no interaction of R-catcher with Nt-Ala19 of SERPINH1 peptides and Nt-Trp38 of PRDX4 peptides. […] Bound GST-ZZ (N132D) was detected by immunoblotting. e Identification of arginylated sites employing mutational analysis. […]

R-catcher [3] = experiment: R-catcher pulldown of P1' site Gly mutants; assay type: binding, human; conditions: E20 SERPINH1, E30 (printed) PRDX4, D23 CLUS, D30 FBLN1 to Gly, Fig. 6e
Method: as §1, §2

[4] = Identification of arginylation sites, GelNrich and in-gel digestion LC-MS/MS
Source text: Upon separation of the immunoprecipitated protein by SDS-PAGE and staining with Coomassie Blue, the corresponding protein band was excised, half of which was subjected to GelNrich and the other half to conventional in-gel digestion GelNrich is an N-terminal peptide enrichment method based on in-gel digestion. The method includes in-gel protein level labeling of primary amines using d6-acetic anhydride and post-digestion negative selection of labeled N-terminal peptide(s) using N-hydroxysuccinimide activated agarose beads. Peptides recovered from GelNrich or in-gel digestion were dried in a vacuum evaporator and reconstituted in 0.1% formic acid. An aliquot was injected from a cooled (10 °C) auto-sampler into a reversed-phase EASY-Spray column (25 cm × 75 μm, Thermo Fisher Scientific) on an Eksigent nanoLC-ultra 1D plus system (Danaher Corporation) at a flow rate of 300 nL/min. Prior to use, the column was equilibrated with 96% buffer A (0.1% formic acid in water) and 4% buffer B (0.1% formic acid in acetonitrile). The peptides were eluted with a linear gradient from 4 to 35% buffer B over 60 min and 35–80% buffer B over 2 min followed by an organic wash and aqueous re-equilibration at a flow rate of 300 nL/min with a total run time of 96 min. The HPLC system was coupled to a Q-Exactive mass spectrometer (Thermo Fisher Scientific) operated in a data-dependent acquisition (DDA) mode. Survey full-scan MS spectra (m/z 400–1800) were acquired with a resolution of 70,000. The MS/MS spectra of the 12 most intense ions from the MS1 scan with charge states 1 ~ 5 were acquired with the following options: resolution, 17,500; automatic gain control (AGC) target, 5E4; isolation width, 2.0 m/z; normalized collision energy, 27%; dynamic exclusion duration, 60 s; and ion selection threshold, 4.2E2 counts. Source ionization parameters were as follow: spray voltage, 1.9 kV; capillary temperature, 275 °C; and s-lens level, 50.0. […]

R-catcher [5] = experiment: Small-scale R-catcher pulldown of known arginylated proteins; assay type: binding, human; conditions: HEK293 cells, R-catcher on tactin beads, immunoblot, Fig. 4d
Method: as §1

Row | Molecule | binding with R-catcher, Nt-Arg dependence (R-catcher [1]) | capture by R-catcher, ATE1 dependence (R-catcher [2]) | effect of Gly substitution of P1' site on interaction with R-catcher (R-catcher [3]) | arginylation detected by mass spectrometry [4] | pulldown by R-catcher, overexpressed substrates (R-catcher [5])
1 | B1 | Nt-Arg-dependent binding with R-catcher | captured by R-catcher in an ATE1-dependent manner | significantly impaired their interaction with R-catcher; also recorded: abolished their binding with R-catcher | the D30 residue | –
2 | B2 | Nt-Arg-dependent binding with R-catcher | captured by R-catcher in an ATE1-dependent manner | significantly impaired their interaction with R-catcher; also recorded: abolished their binding with R-catcher | not detected | –
3 | B3 | no significant binding affinity for R-catcher | – | – | – | –
4 | B4 | Nt-Arg-dependent binding with R-catcher | captured by R-catcher in an ATE1-dependent manner | significantly impaired their interaction with R-catcher; also recorded: abolished their binding with R-catcher | not detected | –
5 | B5 | – | – | – | – | could pulldown
